Results on two molecules are retold here after article PMC6041754 (Journal of Molecular Cell Biology, 2017).

The target of one assay is Ran^Δ181–216 (human, UniProt P62826 1-180). Put plainly: NMR.
Assay [1] has as its target Ran (full-length, His6-tagged, from pET22b) (human, UniProt P62826 1-216). Put plainly: SPR.

B1: Mog1 without a tag (co-expressed with Ran from pRSFDuet-1) (natural protein)
chain: MEPTRDCPLFGGAFSAILPMGAIDVSDLRPVPDNQEVFCHPVTDQSLIVELLELQAHVRGEAAARYHFEDVGGVQGARAVHVESVQPLSLENLALRGRCQEAWVLSGKQQIAKENQQVAKDVTLHQALLRLPQYQTDLLLTFNQPPPDNRSSLGPENLSPAPWSLGDFEQLVTSLTLHDPNIFGPQ
modifications: isotope labels (2H, 15N, ILV methyl 13CH3) as the sample required
For B1, the binding result in the assay with Ran^Δ181–216 is listed as “binds”.

B2: Mog1^E50K,E53K (natural protein)
chain: MEPTRDCPLFGGAFSAILPMGAIDVSDLRPVPDNQEVFCHPVTDQSLIVKLLKLQAHVRGEAAARYHFEDVGGVQGARAVHVESVQPLSLENLALRGRCQEAWVLSGKQQIAKENQQVAKDVTLHQALLRLPQYQTDLLLTFNQPPPDNRSSLGPENLSPAPWSLGDFEQLVTSLTLHDPNIFGPQ
Consider B2, for which the “fold reduction of binding affinity against wild-type Mog1” value in assay [1] was roughly 100 fold.
